Legend:
Assay in all cases: yeast two-hybrid screen; number of positive colonies with this interactor
Laminin alpha-4 chain = Laminin alpha-4 chain (rat)
Procedure: (§1) A yeast two hybrid screen was carried out in order to identify A proteins which interact with L119. The entire coding region of the L119 cDNA was amplified in a polymerase chain reaction (PCR) and cloned into vector pPC86. The oligonucleotide primers having the sequences SEQ ID NO: 35 and 36 were used to do this. A 50 μl PCR mixture was prepared from 5 μl of 10× cloned Pfu buffer (Stratagene); 2 μl of DNTP mixture (5 mM; Cat. No. 1969064, Roche Diagnostics GmbH, Mannheim, Germany); in each case 2 μl of the abovementioned primer pairs (stock conc. 10 μM); 100 ng of rL119 cDNA template, 35 μl of H₂O and 1 μl of Pfu turbo DNA polymerase (Stratagene), and, after it had been incubated at 94° C. for 3 minutes, 28 PCR cycles were then carried out in accordance with the following temperature programm: 1 min of primer annealing at 56° C., 1 min of strand extension at 72° C. and 1 min of DNA double-strand melting at 94° C., together with a concluding extension step of 7 min at 72° C. The resulting PCR products were gel-purified, cut with the restriction enzymes SalI and NotI and cloned into the corresponding restriction cleavage sites of pPC86. The DNA construct obtained in this way encodes a protein in which the Gal4 DNA-binding domain is fused to the L119 protein. The yeast strain Y190 (Flick JS and Johnston M (1990) Mol. Cell. Biol. 10, 4757-4769; Harper J et al. (1993) Cell 75, 805-816) (from Life Technologies) was transformed with this construct. The resulting yeast strain was transformed with a rat brain cDNA library (obtained from cortex and hippocampus RNA, following maximal electroconvulsive shock (MECS) (Antony Lanahan and Paul Worley)) in the vector pPC86 (from Life Technologies), and 3×10⁶ transformants were plated out. After 3 to 5 days of growth at 30° C., colonies having a diameter of more than 2 mm were isolated and subjected to X-Gal staining (protocol: ProQuest™ Two-Hybrid System, Cat. Series 10835, Life Technologies) . […] The respective cDNA from these colonies was amplified using vector-specific primers and the-amplicon was sequenced (protocol: ProQuest™ Two-Hybrid System, Cat. Series 10835, Life Technologies). The sequence analysis gave 8 different putative interacting proteins (Table 1): […]

Nel = Nel (rat, UniProt Q62918)
Procedure: as §1

Matrilin-2 = Matrilin-2 (rat, UniProt A0A8I6GJR4 24-910)
Procedure: as §1

Notch 4 = Notch 4 (rat)
Procedure: as §1

Sequence of Matrilin-2 (A0A8I6GJR4 entry or part of it): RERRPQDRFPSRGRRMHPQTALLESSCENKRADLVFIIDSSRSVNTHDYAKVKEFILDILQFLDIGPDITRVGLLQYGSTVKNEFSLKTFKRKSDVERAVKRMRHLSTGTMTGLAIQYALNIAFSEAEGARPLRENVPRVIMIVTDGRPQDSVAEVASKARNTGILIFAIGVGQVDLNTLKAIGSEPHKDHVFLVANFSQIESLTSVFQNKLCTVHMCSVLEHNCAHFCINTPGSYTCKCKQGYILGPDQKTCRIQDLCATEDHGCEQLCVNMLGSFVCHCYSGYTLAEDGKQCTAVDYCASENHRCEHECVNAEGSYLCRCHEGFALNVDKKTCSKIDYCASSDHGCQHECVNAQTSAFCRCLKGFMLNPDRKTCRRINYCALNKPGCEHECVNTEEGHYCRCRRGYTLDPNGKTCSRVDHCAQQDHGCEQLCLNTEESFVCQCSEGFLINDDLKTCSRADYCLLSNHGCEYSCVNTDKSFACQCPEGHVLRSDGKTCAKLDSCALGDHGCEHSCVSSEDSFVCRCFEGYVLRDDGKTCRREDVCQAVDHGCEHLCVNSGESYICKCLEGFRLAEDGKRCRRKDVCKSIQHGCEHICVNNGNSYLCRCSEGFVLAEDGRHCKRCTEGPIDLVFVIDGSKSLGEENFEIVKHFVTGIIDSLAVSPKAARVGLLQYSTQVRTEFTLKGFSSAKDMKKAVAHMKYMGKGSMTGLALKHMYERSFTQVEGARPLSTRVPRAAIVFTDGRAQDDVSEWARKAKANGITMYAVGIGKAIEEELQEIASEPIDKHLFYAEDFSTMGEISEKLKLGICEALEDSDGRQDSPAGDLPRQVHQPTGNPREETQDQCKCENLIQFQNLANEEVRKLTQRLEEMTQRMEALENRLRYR
Sequence of Nel (Q62918 whole entry): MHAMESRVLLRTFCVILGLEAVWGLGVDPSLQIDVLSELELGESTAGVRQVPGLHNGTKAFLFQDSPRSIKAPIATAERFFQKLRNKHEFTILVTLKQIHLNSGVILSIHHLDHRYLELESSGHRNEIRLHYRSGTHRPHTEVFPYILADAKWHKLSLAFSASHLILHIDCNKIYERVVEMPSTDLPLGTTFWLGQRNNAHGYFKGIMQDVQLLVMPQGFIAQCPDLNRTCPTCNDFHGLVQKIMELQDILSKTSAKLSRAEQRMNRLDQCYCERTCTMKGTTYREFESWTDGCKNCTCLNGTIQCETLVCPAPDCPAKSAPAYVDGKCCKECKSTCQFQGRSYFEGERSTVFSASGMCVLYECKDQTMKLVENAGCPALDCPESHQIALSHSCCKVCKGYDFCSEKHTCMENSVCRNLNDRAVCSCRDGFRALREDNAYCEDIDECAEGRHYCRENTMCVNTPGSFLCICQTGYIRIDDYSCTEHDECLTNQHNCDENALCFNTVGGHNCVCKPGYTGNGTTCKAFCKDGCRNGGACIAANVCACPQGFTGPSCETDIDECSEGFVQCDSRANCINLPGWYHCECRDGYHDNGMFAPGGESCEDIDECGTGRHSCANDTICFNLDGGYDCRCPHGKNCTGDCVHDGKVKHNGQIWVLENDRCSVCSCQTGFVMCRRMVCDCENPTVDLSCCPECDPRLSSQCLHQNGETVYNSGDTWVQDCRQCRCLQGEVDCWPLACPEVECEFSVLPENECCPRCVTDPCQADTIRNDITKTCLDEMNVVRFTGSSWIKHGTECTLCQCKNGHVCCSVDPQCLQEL

B1: Gal4 DNA-binding domain fused to the L119 protein (yeast two-hybrid bait) (other)
chain: MKLLSSIEQACDICRLKKLKCSKEKPKCAKCLKNNWECRYSPKTKRSPLTRAHLTEVESRLERLEQLFLLIFPREDLDMILKMDSLQDIKALLTGLFVQDNVNKDAVTDRLASVETDMPLTLRQHRISATSSSEESSNKGQRQLTVSMEKWTAWEPQGADALRRFQGLLLDRRGRLHCQVLRLREVARRLERLRRRSLAANVAGSSLSAAGALAAIVGLSLSPVTLGASLVASAVGLGVATAGGAVTITSDLSLIFCNSREVRRVQEIAATCQDQMRELLSCLEFFCQWQGRGDRQLLQSGRDASMALYNSVYFIVFFGSRGFLIPRRAEGATKVSQAVLKAKIQKLSESLESCTGALDELSEQLESRVQLCTKAGRGHNLRNSPDLDAALFF
notes: also called L119 bait
- # Frequency (Laminin alpha-4 chain): 1
- # Frequency (Nel): 5
- # Frequency (Matrilin-2): 1
- # Frequency (Notch 4): 3

From US20040260058A1 (published 2004)
